Reference: paper PMC10397247
Blank lines part the entries; values can stand above or below the binder they belong to.

Columns and labels:
Assay in all cases: two-hybrid library CCmax;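 further: natural log of median RNA to DNA barcode read ratio; higher means stronger binding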
4H2190-AA = biological target: T1, 4H2190-AA; conditions: mean of both orientations
T1 chain: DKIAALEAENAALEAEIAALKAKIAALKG

4H2343-AA = biological target: T2, 4H2343-AA; conditions: mean of both orientations
T2 chain: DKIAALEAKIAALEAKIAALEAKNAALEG

4H2505-AA = biological target: T3, 4H2505-AA; conditions: mean of both orientations
T3 chain: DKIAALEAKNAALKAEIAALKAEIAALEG

4H2617-AA = biological target: T4, 4H2617-AA; conditions: mean of both orientations
T4 chain: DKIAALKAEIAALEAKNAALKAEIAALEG

4H2729-AA = biological target: T5, 4H2729-AA; conditions: mean of both orientations
T5 chain: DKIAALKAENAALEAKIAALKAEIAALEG

4H2949-AA = biological target: T6, 4H2949-AA; conditions: mean of both orientations
T6 chain: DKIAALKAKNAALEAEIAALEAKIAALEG

4H3001-AA = biological target: T7, 4H3001-AA; conditions: mean of both orientations
T7 chain: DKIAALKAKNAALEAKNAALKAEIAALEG

4H342-AA = biological target: T8, 4H342-AA; conditions: mean of both orientations
T8 chain: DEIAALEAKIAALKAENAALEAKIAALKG

4H3921-AA = biological target: T9, 4H3921-AA; conditions: mean of both orientations
T9 chain: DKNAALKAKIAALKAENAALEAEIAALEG

4H406-AA = biological target: T10, 4H406-AA; conditions: mean of both orientations
T10 chain: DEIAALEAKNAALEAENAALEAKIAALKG

4H452-AA = biological target: T11, 4H452-AA; conditions: mean of both orientations
T11 chain: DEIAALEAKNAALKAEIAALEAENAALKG

4H454-AA = biological target: T12, 4H454-AA; conditions: mean of both orientations
T12 chain: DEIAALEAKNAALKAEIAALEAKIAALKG

4H566-AA = biological target: T13, 4H566-AA; conditions: mean of both orientations
T13 chain: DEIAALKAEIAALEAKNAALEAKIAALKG

4H605-AA = biological target: T14, 4H605-AA; conditions: mean of both orientations
T14 chain: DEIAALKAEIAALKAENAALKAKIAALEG

4H794-AA = biological target: T15, 4H794-AA; conditions: mean of both orientations
T15 chain: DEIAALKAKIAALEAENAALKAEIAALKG

4H906-AA = biological target: T16, 4H906-AA; conditions: mean of both orientations
T16 chain: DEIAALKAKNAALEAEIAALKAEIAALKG

4H2504-AA = biological target: T17, 4H2504-AA; conditions: mean of both orientations
T17 chain: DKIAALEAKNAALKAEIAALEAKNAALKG

4H2580-AA = biological target: T18, 4H2580-AA; conditions: mean of both orientations
T18 chain: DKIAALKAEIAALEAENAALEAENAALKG

4H2699-AA = biological target: T19, 4H2699-AA; conditions: mean of both orientations
T19 chain: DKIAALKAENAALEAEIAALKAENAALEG

4H341-AA = biological target: T20, 4H341-AA; conditions: mean of both orientations
T20 chain: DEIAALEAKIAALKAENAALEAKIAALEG

4H3595-AA = biological target: T21, 4H3595-AA; conditions: mean of both orientations
T21 chain: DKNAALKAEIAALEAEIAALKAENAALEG

4H483-AA = biological target: T22, 4H483-AA; conditions: mean of both orientations
T22 chain: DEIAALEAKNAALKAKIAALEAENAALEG

4H1597-AA = biological target: T23, 4H1597-AA; conditions: mean of both orientations
T23 chain: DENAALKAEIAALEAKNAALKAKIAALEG

4H1626-AA = biological target: T24, 4H1626-AA; conditions: mean of both orientations
T24 chain: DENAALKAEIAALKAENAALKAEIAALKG

4H2162-AA = biological target: T25, 4H2162-AA; conditions: mean of both orientations
T25 chain: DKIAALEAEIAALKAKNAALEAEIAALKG

4H2620-AA = biological target: T26, 4H2620-AA; conditions: mean of both orientations
T26 chain: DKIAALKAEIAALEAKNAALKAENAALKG

4H2648-AA = biological target: T27, 4H2648-AA; conditions: mean of both orientations
T27 chain: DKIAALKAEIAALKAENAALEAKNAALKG

4H130-AA = biological target: T28, 4H130-AA; conditions: mean of both orientations
T28 chain: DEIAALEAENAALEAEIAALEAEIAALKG

4H1349-AA = biological target: T29, 4H1349-AA; conditions: mean of both orientations
T29 chain: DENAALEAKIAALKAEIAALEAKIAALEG

4H1360-AA = biological target: T30, 4H1360-AA; conditions: mean of both orientations
T30 chain: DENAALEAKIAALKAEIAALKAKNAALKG

4H568-AA = biological target: T31, 4H568-AA; conditions: mean of both orientations
T31 chain: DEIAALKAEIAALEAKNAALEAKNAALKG

4H1552-AA = biological target: T32, 4H1552-AA; conditions: mean of both orientations
T32 chain: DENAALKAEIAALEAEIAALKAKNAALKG

4H_APH4 = biological target: T33, 4H_APH4
T33 chain: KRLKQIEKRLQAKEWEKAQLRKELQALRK

AP3-AA = biological target: T34, AP3-AA; conditions: mean of both orientations
T34 chain: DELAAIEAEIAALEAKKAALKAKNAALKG

AP6-AA = biological target: T35, AP6-AA; conditions: mean of both orientations
T35 chain: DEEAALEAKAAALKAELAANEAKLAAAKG

AP7-AA = biological target: T36, AP7-AA; conditions: mean of both orientations
T36 chain: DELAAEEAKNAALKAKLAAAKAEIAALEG

P3-AA = biological target: T37, P3-AA; conditions: mean of both orientations
T37 chain: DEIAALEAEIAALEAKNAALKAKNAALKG

P4-AA = biological target: T38, P4-AA; conditions: mean of both orientations
T38 chain: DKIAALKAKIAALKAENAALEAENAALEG

P7-AA = biological target: T39, P7-AA; conditions: mean of both orientations
T39 chain: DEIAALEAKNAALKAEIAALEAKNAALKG

P8-AA = biological target: T40, P8-AA; conditions: mean of both orientations
T40 chain: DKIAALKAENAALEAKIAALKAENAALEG

P9-AA = biological target: T41, P9-AA; conditions: mean of both orientations
T41 chain: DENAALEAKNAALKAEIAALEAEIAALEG

- interaction score (4H2190-AA): -1.12
- interaction score (4H2343-AA): -1.25
- interaction score (4H2505-AA): -1.7
- interaction score (4H2617-AA): 0.892
- interaction score (4H2729-AA): -1.3
- interaction score (4H2949-AA): -1.21
- interaction score (4H3001-AA): -1.67
- interaction score (4H342-AA): 1.73
- interaction score (4H3921-AA): -1.58
- interaction score (4H406-AA): -1.15
- interaction score (4H452-AA): -1.51
- interaction score (4H454-AA): -0.571
- interaction score (4H566-AA): 0.482
- interaction score (4H605-AA): -1.15
- interaction score (4H794-AA): -1.31
- interaction score (4H906-AA): -1.29
Binder: DKIAALEAEIAALKAKNAALEAKIAALEG [4H2165-AA]

- interaction score (4H1597-AA): 0.746
- interaction score (4H1626-AA): -0.373
- interaction score (4H2162-AA): -0.945
- interaction score (4H2620-AA): -1.03
- interaction score (4H2648-AA): -1.18
Binder: DENAALEAKIAALEAENAALKAKIAALKG [4H1310-AA]

- interaction score (4H130-AA): 1.9
- interaction score (4H1349-AA): 0.365
- interaction score (4H1360-AA): -0.666
- interaction score (4H2580-AA): -1.12
- interaction score (4H2699-AA): -0.951
- interaction score (4H341-AA): -1.24
- interaction score (4H3595-AA): 0.807
- interaction score (4H483-AA): -1.91
- interaction score (4H568-AA): -0.953
Binder: DENAALEAENAALKAKIAALKAEIAALEG [4H1257-AA]

- interaction score (4H1552-AA): -0.741
- interaction score (4H2190-AA): 1.09
- interaction score (4H2505-AA): -1.67
- interaction score (4H2617-AA): -0.502
- interaction score (4H2620-AA): -1.63
- interaction score (4H2648-AA): 0.46
- interaction score (4H2729-AA): 0.705
- interaction score (4H2949-AA): 0.393
- interaction score (4H342-AA): 2.15
- interaction score (4H454-AA): -1.2
- interaction score (4H566-AA): 1.79
- interaction score (4H605-AA): -1.38
- interaction score (4H794-AA): -1.02
- interaction score (4H906-AA): -1.91
- interaction score (4H_APH4): -1.85
- interaction score (AP3-AA): -0.918
- interaction score (AP6-AA): -1.73
- interaction score (AP7-AA): -1.37
- interaction score (P3-AA): -1.1
- interaction score (P4-AA): -1.93
- interaction score (P7-AA): -1.39
- interaction score (P8-AA): 0.854
- interaction score (P9-AA): -0.999
Binder: DENAALEAKIAALKAKNAALKAEIAALEG [4H1401-AA]

Continued, binder first:

Binder: DEIAALEAENAALKAKNAALKAEIAALEG [4H249-AA]
- interaction score (4H2504-AA): -1.35
- interaction score (4H2580-AA): -0.825
- interaction score (4H2699-AA): -1.1
- interaction score (4H3001-AA): -1.12
- interaction score (4H341-AA): 0.538
- interaction score (4H3595-AA): -1.4
- interaction score (4H406-AA): 1.19
- interaction score (4H452-AA): -1.53
- interaction score (4H483-AA): -1.76

Binder: DENAALEAENAALEAEIAALEAEIAALEG [4H1153-AA]
- interaction score (4H1552-AA): -0.818
- interaction score (4H2190-AA): -0.187
- interaction score (4H2505-AA): 0.301
- interaction score (4H2617-AA): -2.01
- interaction score (4H2620-AA): -1.41
- interaction score (4H2648-AA): -1.19
- interaction score (4H2729-AA): 0.0308
- interaction score (4H2949-AA): -0.947
- interaction score (4H342-AA): -1.39
- interaction score (4H3921-AA): -1.87
- interaction score (4H454-AA): 0.894
- interaction score (4H566-AA): -1.5
- interaction score (4H605-AA): -1.75
- interaction score (4H794-AA): -1.49
- interaction score (4H906-AA): -1.21

Binder: DEIAALEAENAALEAKIAALKAENAALEG [4H171-AA]
- interaction score (4H2162-AA): -1.5
- interaction score (P9-AA): -0.774
